Measured values as given in US9376684.
Values belong to the substance of their own block, whether it stands above or below them.

Key:
[1] = system: native full-length hirudin (Biopharm)
[2] = system: synthetic C-terminal hirudin dodecapeptide analog comprising hirudin residues 53-64, with sulfato-Tyr64 (American Diagnostica)
TFPI1-276-CD4 [3] = target: TFPI1-276-CD4 (UniProt P10646); test: flow cytometry, DAP.3 transfectants incubated with increasing FXa
TFPI1-183-CD4 [4] = target: TFPI1-183-CD4 (UniProt P10646); test: as above
TFPI1-276-CD4 [5] = target: TFPI1-276-CD4 (UniProt P10646)
TFPI1-183-CD4 [6] = target: TFPI1-183-CD4 (UniProt P10646)

Substance: thrombin
thrombin-dependent catalytic activity (cleavage of chromogenic substrate S-2238) [1]: no chromogenic conversion was observed with thrombin incubated with PPACK-HCl or hirudin as compared to thrombin incubated without inhibitor
thrombin-dependent catalytic activity (cleavage of chromogenic substrate S-2238) [2]: the dodecapeptide did not influence thrombin-dependent catalytic activity as measured by cleavage of S-2238

FXa concentration at which significant binding was detected (TFPI1-276-CD4 [3]): 0.02 nM
FXa concentration at which significant binding was detected (TFPI1-183-CD4 [4]): 0.02 nM
Substance: FXa (from UniProt P00742 41-488) (enzyme)

Substance: FXa
proteolytic activity of FXa (chromogenic substrate S-2765; time required to reach OD405=0.1) (TFPI1-276-CD4 [5]): FXa activity was inhibited by expressed TFPI-CD4 in a dose dependent manner with the greatest inhibition noted when low concentrations of FXa (0.16 nM) were added
proteolytic activity of FXa (chromogenic substrate S-2765; time required to reach OD405=0.1) (TFPI1-183-CD4 [6]): FXa activity was inhibited by expressed TFPI-CD4 in a dose dependent manner with the greatest inhibition noted when low concentrations of FXa (0.16 nM) were added
